As usually defined, the Km is the concentration of substrate that gives half-maximal velocity.

What all share (details): 50 °C, 50 mM sodium phosphate pH 7.4 (also Tris-HCl pH 8.5), 5 μM enzyme, 1-20 mM substrate
The test system of data set [1] is T1, EstA3_Bb (naturally shorter B. brevis esterase).
T1 construct: gene EstA3.bb; full-length natural enzyme lacking the C-terminal tail, 6xHis-tag (pET28a, plasmid pFEM170), codon-optimised synthetic gene, E. coli BL21(DE3) pLysS, Ni-NTA; calculated mass 35,243
As to the kind of experiment: p-nitrophenol release at […] nm, Lineweaver-Burk. In kind it is biochemical, Brevibacillus brevis.

Substrate in data set [2]: CCCC(=O)Oc1ccc([N+](=O)[O-])cc1
As to the kind of experiment: purified protein. In kind it is biochemical, Caldanaerobacter subterraneus.

Substrate in data set [3]: CCCCCCCC(=O)Oc1ccc([N+](=O)[O-])cc1
The data set can be described thus: purified protein. In kind it is biochemical, Caldanaerobacter subterraneus.

Take `CCCC(=O)Oc1ccc([N+](=O)[O-])cc1` [pNPC4, p-nitrophenyl butyrate]: the Km in data set [1] (table value, text b31 prints 0.53 mM) worked out at 590 µM.
With `CCCCCCCC(=O)Oc1ccc([N+](=O)[O-])cc1` [pNPC8, p-nitrophenyl caprylate], the Michaelis constant (Km) in data set [1] came to 510 µM.

B1: EstA3_Tt (wild-type T. tengcongensis esterase EstA3, LipA3) (Caldanaerobacter subterraneus subsp. tengcongensis MB4) (protein)
chain: MNNPVVFLHGIFGSIFTPTPLGKIWSFGPAANIYAPFIEDLQKIGLVENKNLFVCYYEWWRKIPDAVDKLILAIEEAKAKTGSSKVDLVCHSMGGLLARSYLQSDKYQFDVDKLILLGTPNLGAANAYYGWEGGTVPPDDEDFVNMLFRGFLWIFSKIKGEKDAVTVIRKYIPSIKDLMPSKEYGSYLFMYPVRYEKILFKNIEYMKVINDFLNDLNEKADILYERVRSVYLFAGEGVYTNKFIQVEKSESEVVWPDGKPVGVIRDDKGDGTVLTKSALGINGEEIVLKSSHIGILKDSVSYLGEILGIREKPSISLLEKAISYLSIITDKKIVVLDRSKKIKTYDVFGKYNWHVCFEPEGVYKISIKEPGMSEFYIETNKKTVEKKFKSSRLSRGAEFTLEVDEEGNFKMRDG
notes: full length, 6xHis-tag (pET28a, plasmid pFEM45), codon-optimised synthetic gene, E. coli BL21(DE3) pLysS, Ni-NTA; calculated mass 47,078
For B1, the Michaelis constant (Km) in “purified protein [2]” was found to be 530 µM; in the data set “purified protein [3]” (listed as label shifted in table, assigned by text b31), 490 µM.

B2: EstA3_TtΔ (truncated T. tengcongensis esterase) (Caldanaerobacter subterraneus subsp. tengcongensis MB4) (protein)
chain: MNNPVVFLHGIFGSIFTPTPLGKIWSFGPAANIYAPFIEDLQKIGLVENKNLFVCYYEWWRKIPDAVDKLILAIEEAKAKTGSSKVDLVCHSMGGLLARSYLQSDKYQFDVDKLILLGTPNLGAANAYYGWEGGTVPPDDEDFVNMLFRGFLWIFSKIKGEKDAVTVIRKYIPSIKDLMPSKEYGSYLFMYPVRYEKILFKNIEYMKVINDFLNDLNEKADILYERVRSVYLFAGEGVYTNKFIQVEKSESEVVWPDGKPVGVIRDDKGDGTVLTKSALGINGEEIVLKSSHIGILKDSVSYLGEILG
notes: catalytic domain; 6xHis-tag (pET28a, plasmid pFEM103), E. coli BL21(DE3) pLysS, Ni-NTA; calculated mass 34,719
Take B2: the Km in “purified protein [2]” is 640 µM; in “purified protein [3]”, 560 µM.

The values are drawn from paper PMC10816834, “Role of the C-Terminal β Sandwich of Thermoanaerobacter tengcongensis Thermophilic Esterase in Hydrolysis of Long-Chain Acyl Substrates” (International Journal of Molecular Sciences, 2024).
